B1: PilT^Pa two-hybrid fusion from pKT25::PilT^Pa (wild type) [Pseudomonas aeruginosa] / PilC^Pa two-hybrid fusion from pUT18C::PilC^Pa [Pseudomonas aeruginosa] (parent complex)
chain 1: MDITELLAFSAKQGASDLHLSAGLPPMIRVDGDVRRINLPPLEHKQVHALIYDIMNDKQRKDFEEFLETDFSFEVPGVARFRVNAFNQNRGAGAVFRTIPSKVLTMEELGMGEVFKRVSDVPRGLVLVTGPTGSGKSTTLAAMLDYLNNTKYHHILTIEDPIEFVHESKKCLVNQREVHRDTLGFSEALRSALREDPDIILVGEMRDLETIRLALTAAETGHLVFGTLHTTSAAKTIDRVVDVFPAEEKAMVRSMLSESLQSVISQTLIKKIGGGRVAAHEIMIGTPAIRNLIREDKVAQMYSAIQTGGSLGMQTLDMCLKGLVAKGLISRENAREKAKIPENF
chain 2: MLVKAHLRKQGINPLKVRKKGISLLGAGKKVKPMDIALFTRQMATMMGAGVPLLQSFDIIGEGFDNPNMRKLVDEIKQEVSSGNSLANSLRKKPQYFDELYCNLVDAGEQSGALENLLDRVATYKEKTESLKAKIRKAMTYPIAVIIVALIVSAILLIKVVPQFQSVFQGFGAELPAFTQMVVNLSEFLQEWWLAVIVGVGAIGFTFKELHKRSKKFRDTLDRTILKLPIFGGIVYKSAVARYARTLSTTFAAGVPLVDALDSVSGATGNIVFKNAVSKIKQDVSTGMQLNFSMRTTSVFPNMAIQMTAIGEESGSLDEMLSKVASYYEEEVDNAVDNLTTLMEPMIMAVLGVLVGGLIVAMYLPIFQLGNVVG

The test covers variants of B1. The experiment in a line: bacterial two-hybrid (BACTH), β-galactosidase activity; E. coli BTH101; n = 3; parent: 650; read off a plot.
chain 1 MDITELLAFSAKQGASDLHLSAGLPPMIRVDGDVRRINLPPLEHKQVHALIYDIMNDKQRKDFEEFLETDFSFEVPGVARFRVNAFNQNRGAGAVFRTIPSKVLTMEELGMGEVFKRVSDVPRGLVLVTGPTGSGKSTTLAAMLDYLNNTKYHHILTIEDPIEFVHESKKCLVNQREVHRDTLGFSEALRSALREDPDIILVGEMRDLETIRLALRAAETGHLVFGTLHTTSAAKTIDRVVDVFPAEEKAMVRSMLSESLQSVISQTLIKKIGGGRVAAHEIMIGTPAIRNLIREDKVAQMYSAIQTGGSLGMQTLDMCLKGLVAKGLISRENAREKAKIPENF [chain 1 T216R]: the response is around 700 Miller units. As to chain 1 MDITELLAFSAKQGASDLHLSAGLPPMIRVDGDVRRINLPPLEHKQVHALIYDIMNDKQRKDFEEFLETDFSFEVPGVARFRVNAFNQNRGAGAVFRTIPSKVLTMEELGMGEVFKRVSDVPRGLVLVTGPTGSGKSTTLAAMLDYLNNTKYHHILTIEDPIEFVHESKKCLVNQREVHRDTLGFSEALRSALREDPDIILVGEMRDLETIRLALTAAETGHLVFGTLHTTSAAKTIDAVVDVFPAEEKAMVRSMLSESLQSVISQTLIKKIGGGRVAAHEIMIGTPAIRNLIREDKVAQMYSAIQTGGSLGMQTLDMCLKGLVAKGLISRENAREKAKIPENF [chain 1 R239A], the response is around 490 Miller units. Regarding chain 1 MDITELLAFSAKQGASDLHLSAGLPPMIRVDGDVRRINLPPLEHKQVHALIYDIMNDKQRKDFEEFLETDFSFEVPGVARFRVNAFNQNRGAGAVFRTIPSKVLTMEELGMGEVFKRVSDVPRGLVLVTGPTGSGKSTTLAAMLDYLNNTKYHHILTIEDPIEFVHESKKCLVNQREVHRDTLGFSEALRSALREDPDIILVGEMRDLETIRLALTAAETGHLVFGTLHTTSAAKTIDRVVDVFPAEEKAMVRSMLSASLQSVISQTLIKKIGGGRVAAHEIMIGTPAIRNLIREDKVAQMYSAIQTGGSLGMQTLDMCLKGLVAKGLISRENAREKAKIPENF [chain 1 E258A], the response is around 850 Miller units. Under chain 1 MDITELLAFSAKQGASDLHLSAGLPPMIRVDGDVRRINLPPLEHKQVHALIYDIMNDKQRKDFEEFLETDFSFEVPGVARFRVNAFNQNRGAGAVFRTIPSKVLTMEELGMGEVFKRVSDVPDGLVLVTGPTGSGKSTTLAAMLDYLNNTKYHHILTIEDPIEFVHESKKCLVNQREVHRDTLGFSEALRSALREDPDIILVGEMRDLETIRLALTAAETGHLVFGTLHTTSAAKTIDRVVDVFPAEEKAMVRSMLSESLQSVISQTLIKKIGGGRVAAHEIMIGTPAIRNLIREDKVAQMYSAIQTGGSLGMQTLDMCLKGLVAKGLISRENAREKAKIPENF [chain 1 R123D] stands around 140 Miller units. With chain 1 MDITELLAFSAKQGASDLHLSAGLPPMIRVDGDVRRINLPPLEHKQVHALIYDIMNDKQRKDFEEFLETDFSFEVPGVARFRVNAFNQNRGAGAVFRTIPSKVLTMEELGMGEVFKRVSDVPRGLVLVTGPTGSGKSTTLAAMLDYLNNTKYHHILTIEDPIEFVHESKKCLVNQREVHRDTLGFSEALRSALREDPDIILVGEMRDLETIRLALTAAKTGHLVFGTLHTTSAAKTIDRVVDVFPAEEKAMVRSMLSESLQSVISQTLIKKIGGGRVAAHEIMIGTPAIRNLIREDKVAQMYSAIQTGGSLGMQTLDMCLKGLVAKGLISRENAREKAKIPENF [chain 1 E219K], the response is around 230 Miller units. Take chain 1 MDITELLAFSAKQGASDLHLSAGLPPMIRVDGDVRRINLPPLEHKQVHALIYDIMNDRQRKDFEEFLETDFSFEVPGVARFRVNAFNQNRGAGAVFRTIPSKVLTMEELGMGEVFKRVSDVPRGLVLVTGPTGSGKSTTLAAMLDYLNNTKYHHILTIEDPIEFVHESKKCLVNQREVHRDTLGFSEALRSALREDPDIILVGEMRDLETIRLALTAAETGHLVFGTLHTTSAAKTIDRVVDVFPAEEKAMVRSMLSESLQSVISQTLIKKIGGGRVAAHEIMIGTPAIRNLIREDKVAQMYSAIQTGGSLGMQTLDMCLKGLVAKGLISRENAREKAKIPENF [chain 1 K58R]: the response was around 750 Miller units.

chain 1 MDITELLAFSAKQGASDLHLSAGLPPMIRVDGDVRRINLPPLEHKQVHALIYDIMNDAQRKDFEEFLETDFSFEVPGVARFRVNAFNQNRGAGAVFRTIPSKVLTMEELGMGEVFKRVSDVPRGLVLVTGPTGSGKSTTLAAMLDYLNNTKYHHILTIEDPIEFVHESKKCLVNQREVHRDTLGFSEALRSALREDPDIILVGEMRDLETIRLALTAAETGHLVFGTLHTTSAAKTIDRVVDVFPAEEKAMVRSMLSESLQSVISQTLIKKIGGGRVAAHEIMIGTPAIRNLIREDKVAQMYSAIQTGGSLGMQTLDMCLKGLVAKGLISRENAREKAKIPENF [chain 1 K58A]: the response was around 700 Miller units. Consider chain 1 MDITELLAFSAKQGASDLHLSAGLPPMIRVDGDVRRINLPPLEHKQVHALIYDIMNDQQRKDFEEFLETDFSFEVPGVARFRVNAFNQNRGAGAVFRTIPSKVLTMEELGMGEVFKRVSDVPRGLVLVTGPTGSGKSTTLAAMLDYLNNTKYHHILTIEDPIEFVHESKKCLVNQREVHRDTLGFSEALRSALREDPDIILVGEMRDLETIRLALTAAETGHLVFGTLHTTSAAKTIDRVVDVFPAEEKAMVRSMLSESLQSVISQTLIKKIGGGRVAAHEIMIGTPAIRNLIREDKVAQMYSAIQTGGSLGMQTLDMCLKGLVAKGLISRENAREKAKIPENF [chain 1 K58Q], for which the response is around 630 Miller units. In the case of chain 1 MDITELLAFSAKQGASDLHLSAGLPPMIRVDGDVRRINLPPLEHKQVHALIYDIMNDKQRKDFEEFLETDFSFEVPGVARFRVNAFNQNRGAGAVFRTIPSKVLTMEELGMGEVFKRVSDVPRGLVLVTGPTGSGKSTTLAAMLDYLNNTKYHHILTIEDPIEFVHESKKCLVNQREVHRDTLGFSEALRSALREDPDIILVGEMRDLETIRLALTAAETGHLVFGTLHTTSAAKTIDRVVKVFPAEEKAMVRSMLSESLQSVISQTLIKKIGGGRVAAHEIMIGTPAIRNLIREDKVAQMYSAIQTGGSLGMQTLDMCLKGLVAKGLISRENAREKAKIPENF [chain 1 D242K], the response was around 670 Miller units. As for chain 1 MDITELLAFSAKQGASDLHLSAGLPPMIRVKGDVRRINLPPLEHKQVHALIYDIMNDKQRKDFEEFLETDFSFEVPGVARFRVNAFNQNRGAGAVFRTIPSKVLTMEELGMGEVFKRVSDVPRGLVLVTGPTGSGKSTTLAAMLDYLNNTKYHHILTIEDPIEFVHESKKCLVNQREVHRDTLGFSEALRSALREDPDIILVGEMRDLETIRLALTAAETGHLVFGTLHTTSAAKTIDRVVDVFPAEEKAMVRSMLSESLQSVISQTLIKKIGGGRVAAHEIMIGTPAIRNLIREDKVAQMYSAIQTGGSLGMQTLDMCLKGLVAKGLISRENAREKAKIPENF [chain 1 D31K], the response is around 220 Miller units. Consider chain 1 MDITELLAFSAKQGASDLHLSAGLPPMIRVDGDVRRINLPPLEHKQVHALIYDIMNDKQRKDFEEFLETDFSFEVPGVARFRVNAFNQNRGAGAVFRTIPSKVLTMEELGMGEVFKRVSDVPRGLVLVTGPTGSGKSTTLAAMLDYLNNTKYHHILTIEDPIEFVHESKKCLVNQREVHRDTLGFSEALRSALREDPDIILVGEMRDLETIRLALTAAETGHLVFGTLHTTSAAKTIDRVVDVFPAEEKAMVRSMLSESLQSVISQTLIKKIGGGRVAAHEIMIGTPAIRNLIEEDKVAQMYSAIQTGGSLGMQTLDMCLKGLVAKGLISRENAREKAKIPENF [chain 1 R294E], for which the response was around 200 Miller units.
